Reference: US20070054353A1 (published 2007)
One block for each binder: values may come before it.

B4: GST-LCoR (other)
chain: MQRMIQQFAAEYTSKNSSTQDPSQPNSTKNQSLPKASPVTTSPTAATTQNPVLSKLLMADQDSPLDLTVRKSQSEPSEQDGVLDLSTKKSPCAGSTSLSHSPGCSSTQGNGRPGRPSQYRPDGLRSGDGVPPRSLQDGTREGFGHSTSLKVPLARSLQISEELLSRNQLSTAASLGPSGLQNHGQHLILSREASWAKPHYEFNLSRMKFRGNGALSNISDLPFLAENSAFPKMALQAKQDGKKDVSHSSPVDLKIPQVRGMDLSWESRTGDQYSYSSLVMGSQTESALSKKLRAILPKQSRKSMLDAGPDSWGSDAEQSTPGQPYPTSDQEGDPGSKQPRKKRGRYRQYNSEILEEAISVVMSGKMSVSKAQSIYGIPHSTLEYKVKERLGTLKNPPKKKMKLMRSEGPDVSVKIELDPQGEAAQSANESKNE
notes: also called GST fused to LCoR; not shown: glutathione S-transferase (GST) tag of vector pGEX2TK

Tests used:
GST-LCoR = target: B4; assay: GST pull-down
ERα-EYFP fusion protein = target: T1, ERα-EYFP fusion protein (UniProt P03372 1-595); assay: BRET in living COS-7 cells
T1 construct: also called EYFP-ERα; not shown: EYFP (engineered fluorescent protein) of vector pEYFP-CMV
T1 sequence (looked up): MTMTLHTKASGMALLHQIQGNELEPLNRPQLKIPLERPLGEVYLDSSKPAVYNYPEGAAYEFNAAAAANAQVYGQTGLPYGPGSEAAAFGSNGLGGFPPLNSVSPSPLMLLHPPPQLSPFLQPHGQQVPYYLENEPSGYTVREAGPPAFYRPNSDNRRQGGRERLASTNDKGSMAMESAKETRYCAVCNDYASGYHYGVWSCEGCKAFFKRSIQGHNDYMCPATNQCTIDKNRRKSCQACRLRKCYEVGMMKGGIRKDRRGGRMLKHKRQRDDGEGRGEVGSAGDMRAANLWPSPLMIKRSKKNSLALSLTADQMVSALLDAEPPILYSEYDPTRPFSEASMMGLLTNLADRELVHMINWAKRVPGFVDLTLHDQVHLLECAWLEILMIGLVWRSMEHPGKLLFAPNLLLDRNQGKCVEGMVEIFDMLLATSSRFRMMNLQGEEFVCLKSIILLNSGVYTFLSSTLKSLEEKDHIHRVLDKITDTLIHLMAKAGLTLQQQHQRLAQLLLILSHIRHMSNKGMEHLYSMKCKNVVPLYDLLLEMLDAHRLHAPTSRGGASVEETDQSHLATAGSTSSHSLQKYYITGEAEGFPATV
Description: Cells were washed (2×) with PBS and harvested with 500 μl of PBS-5 mM EDTA. […] Readings were started immediately after coelenterazine H addition, and 10 repeated measures were taken.
BRET ratios were calculated as described in experimental procedures.

HDAC4 = target: T2, HDAC4 (UniProt P56524 1-1084, limits assumed); assay: GST pull-down, in vitro translated HDAC
T2 construct: also called histone deacetylase 4

HDAC1 = target: T3, HDAC1 (UniProt Q13547 1-482); assay: GST pull-down, in vitro translated HDAC
T3 construct: also called histone deacetylase 1

[1] = target: CtBP1 (C-terminal binding protein 1) (human, UniProt Q13363 1-440); assay: coimmunoprecipitation with anti-CtBP antibody from transfected MCF-7 cells
Description: For immunoprecipitation of endogenous CtBP, CtIP, Rb, or Bmi1, MCF-7 cells in 150 mm dishes were lysed 3 min at 4° C. in 1 ml of LB (150 mM NaCl/10 mM Tris-HCl pH 7.4/0.2 mM Na orthovanadate/1 mM EDTA/1 mM EGTA/1% Triton-100X/0.5% IGEPAL CA-630/protease inhibitor cocktail; Boehringer-Mannheim, Laval, Qc). Cell debris were pelleted by centrifugation (14,000 rpm, 5 min), and proteins immunoprecipitated with 4 μg of αCtBP or αCtIP or αRb or polyclonal rabbit αBMI1 or control rabbit or goat IgG at 4° C. overnight followed by 2 hours incubation at 4° C. with protein A agarose (for αCtBP, αBmi1, control rabbit IgG) or protein A+G agarose (for αCtIP or αRb or control goat IgG). Beads were washed (3×) with LB. […] For immunoprecipitation of tagged proteins, transfected MCF-7 cells were lysed 30 min at 4° C. in 1 ml of LB, 48 h after transfection. Supernatants were cleared, incubated overnight with 4 μg of aCtBP or α-Flag M2 antibody followed by 2 hours incubation with protein-A agarose or protein A+G agarose beads respectively. Beads were washed (3×) with LB and Western blotted as above. Dilutions of specific antibodies used for Western blotting were: α-CtBP1 , α-CtBP2 (1:100), α-Flag M2-peroxidase (1:100).

GST-TIF2.1 = target: T4, GST-TIF2.1 (UniProt Q15596 624-1287); assay: GST pull-down, in vitro translated ER378
T4 construct: also called GST fused to TIF2.1; not shown: glutathione S-transferase (GST) tag of vector pGEX2T
T4 sequence (looked up): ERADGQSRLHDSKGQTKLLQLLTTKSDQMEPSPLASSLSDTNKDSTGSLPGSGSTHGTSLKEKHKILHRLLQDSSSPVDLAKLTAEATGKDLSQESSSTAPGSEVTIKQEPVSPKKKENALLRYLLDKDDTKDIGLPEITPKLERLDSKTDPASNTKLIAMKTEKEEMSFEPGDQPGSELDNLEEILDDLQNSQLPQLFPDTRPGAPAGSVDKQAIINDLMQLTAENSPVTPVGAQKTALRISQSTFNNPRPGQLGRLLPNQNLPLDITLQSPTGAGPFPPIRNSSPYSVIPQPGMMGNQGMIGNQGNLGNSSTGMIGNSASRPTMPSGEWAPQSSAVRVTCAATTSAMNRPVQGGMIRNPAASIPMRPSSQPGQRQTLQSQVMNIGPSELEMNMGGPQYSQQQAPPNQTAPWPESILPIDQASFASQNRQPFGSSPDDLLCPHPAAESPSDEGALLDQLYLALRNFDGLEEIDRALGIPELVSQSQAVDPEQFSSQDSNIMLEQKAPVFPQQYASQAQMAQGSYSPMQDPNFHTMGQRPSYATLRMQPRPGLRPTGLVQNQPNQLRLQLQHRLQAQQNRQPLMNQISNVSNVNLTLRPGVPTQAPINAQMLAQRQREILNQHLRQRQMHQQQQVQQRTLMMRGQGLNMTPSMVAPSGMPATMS

T2 sequence (P56524 whole entry): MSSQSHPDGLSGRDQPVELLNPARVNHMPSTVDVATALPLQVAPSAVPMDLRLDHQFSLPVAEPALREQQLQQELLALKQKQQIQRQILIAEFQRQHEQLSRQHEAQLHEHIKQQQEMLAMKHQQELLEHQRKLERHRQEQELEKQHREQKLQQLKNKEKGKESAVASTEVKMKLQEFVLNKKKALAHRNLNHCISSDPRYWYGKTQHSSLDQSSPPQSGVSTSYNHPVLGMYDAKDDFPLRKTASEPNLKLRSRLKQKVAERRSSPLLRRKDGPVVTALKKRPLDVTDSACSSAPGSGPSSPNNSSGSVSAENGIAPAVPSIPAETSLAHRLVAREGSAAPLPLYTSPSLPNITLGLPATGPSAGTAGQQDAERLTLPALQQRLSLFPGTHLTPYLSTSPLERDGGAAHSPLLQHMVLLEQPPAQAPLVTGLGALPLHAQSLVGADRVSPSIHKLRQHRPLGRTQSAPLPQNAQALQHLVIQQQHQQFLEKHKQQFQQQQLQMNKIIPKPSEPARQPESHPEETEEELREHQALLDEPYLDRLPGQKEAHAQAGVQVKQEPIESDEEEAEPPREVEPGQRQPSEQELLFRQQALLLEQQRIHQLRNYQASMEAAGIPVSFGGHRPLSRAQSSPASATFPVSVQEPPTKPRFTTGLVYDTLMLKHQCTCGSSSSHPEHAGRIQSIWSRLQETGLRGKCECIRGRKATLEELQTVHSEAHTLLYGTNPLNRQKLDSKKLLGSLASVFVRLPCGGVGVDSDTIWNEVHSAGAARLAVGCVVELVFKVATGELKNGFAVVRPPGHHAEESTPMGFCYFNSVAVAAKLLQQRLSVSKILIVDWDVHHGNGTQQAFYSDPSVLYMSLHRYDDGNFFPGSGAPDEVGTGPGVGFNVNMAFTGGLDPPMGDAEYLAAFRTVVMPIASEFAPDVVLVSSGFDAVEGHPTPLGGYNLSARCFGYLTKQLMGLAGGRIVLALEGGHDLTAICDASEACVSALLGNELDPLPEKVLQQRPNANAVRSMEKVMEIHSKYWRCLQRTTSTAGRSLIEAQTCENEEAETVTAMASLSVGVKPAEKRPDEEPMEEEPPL
T3 sequence (Q13547 whole entry): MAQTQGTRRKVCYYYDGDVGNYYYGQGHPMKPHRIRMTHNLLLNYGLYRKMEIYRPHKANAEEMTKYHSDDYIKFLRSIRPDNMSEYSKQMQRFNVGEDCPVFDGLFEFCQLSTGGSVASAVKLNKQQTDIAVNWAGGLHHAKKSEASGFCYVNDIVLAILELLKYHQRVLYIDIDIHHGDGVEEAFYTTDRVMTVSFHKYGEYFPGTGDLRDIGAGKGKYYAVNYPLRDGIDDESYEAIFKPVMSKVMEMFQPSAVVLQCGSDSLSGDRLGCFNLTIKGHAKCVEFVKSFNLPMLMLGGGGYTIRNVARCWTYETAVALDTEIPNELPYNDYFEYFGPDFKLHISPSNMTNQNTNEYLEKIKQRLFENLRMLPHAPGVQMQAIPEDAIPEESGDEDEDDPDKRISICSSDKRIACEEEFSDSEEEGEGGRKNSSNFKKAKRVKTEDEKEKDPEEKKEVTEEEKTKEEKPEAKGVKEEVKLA

B1: HE15 (receptor, UniProt P03372 1-282, looked up)
chain: MTMTLHTKASGMALLHQIQGNELEPLNRPQLKIPLERPLGEVYLDSSKPAVYNYPEGAAYEFNAAAAANAQVYGQTGLPYGPGSEAAAFGSNGLGGFPPLNSVSPSPLMLLHPPPQLSPFLQPHGQQVPYYLENEPSGYTVREAGPPAFYRPNSDNRRQGGRERLASTNDKGSMAMESAKETRYCAVCNDYASGYHYGVWSCEGCKAFFKRSIQGHNDYMCPATNQCTIDKNRRKSCQACRLRKCYEVGMMKGGIRKDRRGGRMLKHKRQRDDGEGRGEVGS
notes: range 1-282; also called ERα truncated to amino acid 282 in region D
binding result (GST-LCoR): no binding

B2: ERα A/B domain (receptor, UniProt P03372 1-180, looked up)
chain: MTMTLHTKASGMALLHQIQGNELEPLNRPQLKIPLERPLGEVYLDSSKPAVYNYPEGAAYEFNAAAAANAQVYGQTGLPYGPGSEAAAFGSNGLGGFPPLNSVSPSPLMLLHPPPQLSPFLQPHGQQVPYYLENEPSGYTVREAGPPAFYRPNSDNRRQGGRERLASTNDKGSMAMESAK
notes: range 1-180; also called ERα truncated to amino acid 180
binding result (GST-LCoR): no binding

B3: LCoR-LSKAA-rluc fusion protein (other)
chain: MQRMIQQFAAEYTSKNSSTQDPSQPNSTKNQSLPKASPVTTSPTAATTQNPVLSKAAMADQDSPLDLTVRKSQSEPSEQDGVLDLSTKKSPCAGSTSLSHSPGCSSTQGNGRPGRPSQYRPDGLRSGDGVPPRSLQDGTREGFGHSTSLKVPLARSLQISEELLSRNQLSTAASLGPSGLQNHGQHLILSREASWAKPHYEFNLSRMKFRGNGALSNISDLPFLAENSAFPKMALQAKQDGKKDVSHSSPVDLKIPQVRGMDLSWESRTGDQYSYSSLVMGSQTESALSKKLRAILPKQSRKSMLDAGPDSWGSDAEQSTPGQPYPTSDQEGDPGSKQPRKKRGRYRQYNSEILEEAISVVMSGKMSVSKAQSIYGIPHSTLEYKVKERLGTLKNPPKKKMKLMRSEGPDVSVKIELDPQGEAAQSANESKNE
notes: also called rluc-LCoR-LSKAA; not shown: Renilla luciferase (rluc) of vector pRL-CMV
fold reduction of hormone-independent interaction against wild-type LCoR (ERα-EYFP fusion protein): ~2 fold

Binder: B4
binding result (HDAC4): no binding
binding result (HDAC1): no binding

B5: GST-LSKAA (other)
chain: MQRMIQQFAAEYTSKNSSTQDPSQPNSTKNQSLPKASPVTTSPTAATTQNPVLSKAAMADQDSPLDLTVRKSQSEPSEQDGVLDLSTKKSPCAGSTSLSHSPGCSSTQGNGRPGRPSQYRPDGLRSGDGVPPRSLQDGTREGFGHSTSLKVPLARSLQISEELLSRNQLSTAASLGPSGLQNHGQHLILSREASWAKPHYEFNLSRMKFRGNGALSNISDLPFLAENSAFPKMALQAKQDGKKDVSHSSPVDLKIPQVRGMDLSWESRTGDQYSYSSLVMGSQTESALSKKLRAILPKQSRKSMLDAGPDSWGSDAEQSTPGQPYPTSDQEGDPGSKQPRKKRGRYRQYNSEILEEAISVVMSGKMSVSKAQSIYGIPHSTLEYKVKERLGTLKNPPKKKMKLMRSEGPDVSVKIELDPQGEAAQSANESKNE
notes: Positions 56 and 57 are counted from the printed motif start (53); also called GST-LCoR-LSKAA; GST fused to LCoR-LSKAA; not shown: glutathione S-transferase (GST) tag of vector pGEX2TK
binding result (HDAC4): no binding
binding result (HDAC1): no binding

Other lines, results leading:

binding result [1]: no binding
B6: Flag-m1+2 (Flag-tagged LCoR mutated in both CtBP binding sites) (other, not shown: small tags and cut ends)
chain: MQRMIQQFAAEYTSKNSSTQDPSQPNSTKNQSLPKASPVTTSPTAATTQNPVLSKLLMADQDSKSQSEPSEQDGKSPCAGSTSLSHSPGCSSTQGNGRPGRPSQYRPDGLRSGDGVPPRSLQDGTREGFGHSTSLKVPLARSLQISEELLSRNQLSTAASLGPSGLQNHGQHLILSREASWAKPHYEFNLSRMKFRGNGALSNISDLPFLAENSAFPKMALQAKQDGKKDVSHSSPVDLKIPQVRGMDLSWESRTGDQYSYSSLVMGSQTESALSKKLRAILPKQSRKSMLDAGPDSWGSDAEQSTPGQPYPTSDQEGDPGSKQPRKKRGRYRQYNSEILEEAISVVMSGKMSVSKAQSIYGIPHSTLEYKVKERLGTLKNPPKKKMKLMRSEGPDVSVKIELDPQGEAAQSANESKNE
notes: also called LCoR derivative (m1+2)

binding result (GST-TIF2.1): no binding
B7: ER378 (receptor, UniProt P03372 1-378, looked up)
chain: MTMTLHTKASGMALLHQIQGNELEPLNRPQLKIPLERPLGEVYLDSSKPAVYNYPEGAAYEFNAAAAANAQVYGQTGLPYGPGSEAAAFGSNGLGGFPPLNSVSPSPLMLLHPPPQLSPFLQPHGQQVPYYLENEPSGYTVREAGPPAFYRPNSDNRRQGGRERLASTNDKGSMAMESAKETRYCAVCNDYASGYHYGVWSCEGCKAFFKRSIQGHNDYMCPATNQCTIDKNRRKSCQACRLRKCYEVGMMKGGIRKDRRGGRMLKHKRQRDDGEGRGEVGSAGDMRAANLWPSPLMIKRSKKNSLALSLTADQMVSALLDAEPPILYSEYDPTRPFSEASMMGLLTNLADRELVHMINWAKRVPGFVDLTLHDQVHL
notes: In vitro translated
